In the supplement of paper PMC10567573:

B1: RAB22A (parent)
chain: FVEDSFDPNINPTIGASFMTKTVQ

Variants of: B1
Experiment: protein stability index of a GFP-peptide fusion (GPS, HEK-293T) (PSI 1-6); higher = more stable
Conditions: c terminus: a fixed tail appended
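Also: lentivirally expressed fusions sorted by FACS into six bins by GFP to DsRed ratio, PSI derived from sequencing read proportions per bin multiplied by bin number.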

Variant | protein stability index
FVEDSFDPNINPTIGASFMTKTVI | 1.55
FVEDSFDPNINPTIGASFMTKTVS | 2.82
FVEDSFDPNINPTIGASFMTKTVT | 2.01
FVEDSFDPNINPTIGASFMTKTVE | 2.91
FVEDSFDPNINPTIGASFMTKTVC | 1.89
FVEDSFDPNINPTIGASFMTKTVM | 1.71
FVEDSFDPNINPTIGASFMTKTVL | 2.19
FVEDSFDPNINPTIGASFMTKTVA | 2.11
FVEDSFDPNINPTIGASFMTKTVF | 1.49
FVEDSFDPNINPTIGASFMTKTVH | 2.1
FVEDSFDPNINPTIGASFMTKTVV | 2.24
FVEDSFDPNINPTIGASFMTKTVD | 2.56
FVEDSFDPNINPTIGDSFMTKTVQ | 2.55
FVEDSFDPNINPTIGMSFMTKTVQ | 1.75
FVEDSFDPNINPTIGTSFMTKTVQ | 2.26
FVEDSFDPNINPTIGQSFMTKTVQ | 2.61
FVEDSFDPNINPTIGKSFMTKTVQ | 1.97
FVEDSFDPNINPTIGGSFMTKTVQ | 2.56
FVEDSFDPNINPTIGCSFMTKTVQ | 1.8
FVEDSFDPNINPTIGPSFMTKTVQ | 2.54
FVEDSFDPNINPTIGESFMTKTVQ | 3.38
FVEDSFDPNINPTIGLSFMTKTVQ | 1.81
FVEDSFDPNINPTIGWSFMTKTVQ | 2.15
FVEDSFDPNINPTIGVSFMTKTVQ | 1.81

Variant | protein stability index
FVEDSFDPNINPTIGFSFMTKTVQ | 2.07
FVEDSFDPNINPTIGYSFMTKTVQ | 1.95
FVEDSFDPNINPTIGNSFMTKTVQ | 2.74
FVEDSFDPNINPTIGISFMTKTVQ | 2.11
FVEDSFDPNINPTIGRSFMTKTVQ | 2.26
FVEDSFDPNINPTIGHSFMTKTVQ | 2.11
FVEDSFDPNINPTIGSSFMTKTVQ | 2.86
FVEDSFDPNINPTIGASFMTQTVQ | 2.87
FVEDSFDPNINPTIGASFMTMTVQ | 1.94
FVEDSFDPNINPTIGASFMTCTVQ | 1.56
FVEDSFDPNINPTIGASFMTWTVQ | 2.44
FVEDSFDPNINPTIGASFMTITVQ | 2.18
FVEDSFDPNINPTIGASFMTSTVQ | 2.11
FVEDSFDPNINPTIGASFMTHTVQ | 2.08
FVEDSFDPNINPTIGASFMTETVQ | 2.67
FVEDSFDPNINPTIGASFMTVTVQ | 1.89
FVEDSFDPNINPTIGASFMTTTVQ | 2.41
FVEDSFDPNINPTIGASFMTYTVQ | 1.93
FVEDSFDPNINPTIGASFMTFTVQ | 2.38
FVEDSFDPNINPTIGASFMTPTVQ | 2.74
FVEDSFDPNINPTIGASFMTNTVQ | 2.51
FVEDSFDPNINPTIGASFMTGTVQ | 2.29
FVEDSFDPNINPTIGASFMTATVQ | 2.03
FVEDSFDPNINPTIGASFMTDTVQ | 2.87

Variant | protein stability index
FVEDSFDPNINPTIGASFMTRTVQ | 2.19
FVEDSFDPNINPTIGASFMTLTVQ | 2.24
FVEDSFDPNINPTIGASFMFKTVQ | 1.85
FVEDSFDPNINPTIGASFMYKTVQ | 1.86
FVEDSFDPNINPTIGASFMKKTVQ | 2.23
FVEDSFDPNINPTIGASFMAKTVQ | 2.14
FVEDSFDPNINPTIGASFMNKTVQ | 2.31
FVEDSFDPNINPTIGASFMWKTVQ | 2.35
FVEDSFDPNINPTIGASFMIKTVQ | 1.87
FVEDSFDPNINPTIGASFMPKTVQ | 2.29
FVEDSFDPNINPTIGASFMMKTVQ | 2.22
FVEDSFDPNINPTIGASFMLKTVQ | 1.66
FVEDSFDPNINPTIGASFMHKTVQ | 2.34
FVEDSFDPNINPTIGASFMRKTVQ | 2.12
FVEDSFDPNINPTIGASFMSKTVQ | 2.06
FVEDSFDPNINPTIGASFMVKTVQ | 2.23
FVEDSFDPNINPTIGASFMGKTVQ | 2.58
FVEDSFDPNINPTIGASFMDKTVQ | 2.52
FVEDSFDPNINPTIGASFMEKTVQ | 2.39
FVEDSFDPNINPTIGASFMQKTVQ | 2.24
FVEDSFDPNINPTIGASFMCKTVQ | 2.38
FVEDSFDPNINPTIWASFMTKTVQ | 1.85
FVEDSFDPNINPTITASFMTKTVQ | 2.22
FVEDSFDPNINPTIYASFMTKTVQ | 1.9

Variant | protein stability index
FVEDSFDPNINPTISASFMTKTVQ | 2.4
FVEDSFDPNINPTIVASFMTKTVQ | 1.87
FVEDSFDPNINPTIRASFMTKTVQ | 1.92
FVEDSFDPNINPTIGASFETKTVQ | 3.36
FVEDSFDPNINPTIGASFGTKTVQ | 2.4
FVEDSFDPNINPTIGASFVTKTVQ | 2.29
FVEDSFDPNINPTIGASFLTKTVQ | 2.22
FVEDSFDPNINPTIGASFWTKTVQ | 3.23
FVEDSFDPNINPTIGASFITKTVQ | 2.25
FVEDSFDPNINPTIGASFHTKTVQ | 2.12
FVEDSFDPNINPTIGASFDTKTVQ | 3.24
FVEDSFDPNINPTIGASFQTKTVQ | 2.38
FVEDSFDPNINPTIGASFYTKTVQ | 2.08
FVEDSFDPNINPTIGASFPTKTVQ | 2.62
FVEDSFDPNINPTIGASFCTKTVQ | 2.66
FVEDSFDPNINPTIGASFATKTVQ | 3.11
FVEDSFDPNINPTIGASFFTKTVQ | 1.73
FVEDSFDPNINPTIGASFTTKTVQ | 2.81
FVEDSFDPNINPTIGASFKTKTVQ | 2.1
FVEDSFDPNINPTIGASFNTKTVQ | 2.99
FVEDSFDPNINPTIGASFSTKTVQ | 2.64
FVEDSFDPNINPTIGASFRTKTVQ | 2.46
